According to patent US7662388B2, “Endogenous peptide and active subfragments thereof” (Innoventus Project AB, priority 2003, dated 2010):

B1: rHRGP: recombinant HRGP produced in HEK-293-EBNA cells without a His-tag (protein)
chain: VSPTDCSAVEPEAEKALDLINKRRRDGYLFQLLRIADAHLDRVENTTVYYLVLDVQESDCSVLSRKYWNDCEPPDSRRPSEIVIGQCKVIATRHSHESQDLRVIDFNCTTSSVSSALANTKDSPVLIDFFEDTERYRKQANKALEKYKEENDDFASFRVDRIERVARVRGGEGTGYFVDFSVRNCPRHHFPRHPNVFGFCRADLFYDVEALDLESPKNLVINCEVFDPQEHENINGVPPHLGHPFHWGGHERSSTTKPPFKPHGSRDHHHPHKPHEHGPPPPPDERDHSHGPPLPQGPPPLLPMSCSSCQHATFGTNGAQRHSHNNNSSDLHPHKHHSHEQHPHGHHPHAHHPHEHDTHRQHPHGHHPHGHHPHGHHPHGHHPHGHHPHCHDFQDYGPCDPPPHNQGHCCHGHGPPPGHLRRRGPGKGPRPFHCRQIGSVYRLPPLRKGEVLPLPEANFPSFPLPHHKHPLKPDNQPFPQSVSESCPGKFKSGFPQVSMFFTHTFPK

Key:
primary BCE cells [1] = test: dose response study Pep2, chemotaxis of BCE cells; format: cell-based, bovine; conditions: 20, 50 or 100 ng/ml, FGF-2 10 ng/ml, Zn2+-acetate
Experimental: A migration assay was performed in a modified Boyden chamber as described earlier (Auerbach et al., 1991) using micropore polycarbonate filters (8 μm thick, 8 μm pore) coated with type-1 collagen solution at 100 μg/ml (Vitrogen 100, Collagen Corp). BCE Cells were trypsinised and resuspended at 7.5×10^5 cells/ml in Dulbecco's modified essential medium (Invitrogen) containing 0.25% BSA and Trasylol at 1000 KIE. The cell suspension was added in the upper chamber and FGF-2 (10 ng/ml), and/or peptide 2 (20, 50 or 100 ng/ml) in medium containing 0.25% BSA were added to the lower chamber. The peptides were dissolved in PBS containing a 10-fold molar excess (Zn:peptide) of Zn^2+-acetate. After 5 h at 37° C., cells that had migrated through the filter were stained with Giemsa and counted using an the Easy Image Analysis software. All samples were analysed in at least six wells for each treatment and at several separate occasions.

primary BCE cells [2] = test: comparative study pep2/pep3, chemotaxis; format: cell-based, bovine; conditions: 50 ng/ml peptide, FGF-2 10 ng/ml, Zn2+-acetate
Experimental: Primary endothelial cells were starved over night in 0.5% normal calf serum. A migration assay was performed in a modified Boyden chamber as described earlier (Auerbach et al., 1991) using micropore polycarbonate filters (8 μm thick, 8 μm pore) coated with type-1 collagen solution at 100 μg/ml (Vitrogen 100, Collagen Corp). Cells were trypsinized and resuspended at 7.5×10^5 cells/ml in Dulbecco's modified essential medium (Invitrogen) containing 0.25% BSA and Trasylol at 1000 KIE. The cell suspension was added in the upper chamber and FGF-2 (10 ng/ml), HRGP (100 ng/ml), peptide 2 or 3 (50 ng/ml) in medium containing 0.25% BSA were added to the lower chamber. The peptides were dissolved in PBS containing a 10-fold molar excess (Zn:peptide) of Zn^2+-acetate. After 5 h at 37° C., cells that had migrated through the filter were stained with Giemsa and counted using the Easy Image Analysis software. All samples were analyzed in at least six wells for each treatment. Results of the study are illustrated in FIG. 7.

T241 fibrosarcoma cells = test: animal study Pep2, fibrosarcoma tumour growth; format: in vivo; conditions: 5 mg/kg/day s.c. daily, mice bearing fibrosarcoma
Experimental: Tumour study: Female, 5 week old, C57BL6/J mice (Mollegard/Bomhultgard, Denmark) were injected with 0.5×10^6 T241 fibrosarcoma cells subcutaneously (s.c.) into the left flank. Animals carrying palpable tumours were randomised (n=5-10 animals/treatment group) and received treatment with vehicle (Zn-acetate in NaCl), 5 mg/kg/day of HIS1 (=full-length HRGP) or Pep2, in a volume of 100 microliters, given as s.c. injections daily, in the right flank. The tumours were measured with a caliper once a day, in a blind procedure, and volumes were calculated by the formula […]×width^2×length. When the tumours reached the upper limit of 2 cm^3, the mice were sacrificed. The animals were anesthetised with isoflurane (Forene; Abbott) during all manipulations.

[3] = test system: chicken chorioallantoic membrane (CAM); test: chicken chorioallantoic membrane (CAM) angiogenesis assay; format: in vivo; conditions: FGF-2 or VEGF-A 0.2 mg per filter, HRGP 3 mg per filter, three days
Experimental: The effect of HRGP on anglogenesis was tested in the chicken chorioallantoic membrane (CAM) assay.
The conditions for the chorioallantoic membrane (CAM) assay followed essentially a previously described procedure (Friedlander et al (1995), Dixelius et al, (2000)). FGF-2 (Boehringer Mannheim) and VEGF-A (Peprotech) was used at 0.2 mg per filter and purified pHRGP or rHRGP at 3 mg per filter. The treated CAM's were inspected in a light microscope and the score, from 0 (low) to 3 (high) was based on the number of vessel branch points. Average values for 5-6 embryos were recorded.
A filter disc soaked in vehicle or growth factor, with or without HRGP, was placed on top of the CAM in the vicinity of a large vessel and incubated for three days. Treatment of the CAM with growth factors, such as FGF-2, stimulated angiogenesis (FIG. 1C; Table 1).

primary BCE cells [4] = test: chemotaxis (migration) assay in modified Boyden chamber, BCE cells; format: cell-based, bovine
Experimental: (§1) The porcine aortic endothelial (PAE) cell line overexpressing FGF receptor-1 (FGFR-1) (Wennström et al 1992) was cultured in Ham's F12/10% fetal bovine serum (FCS) and NIH 3T3 murine fibroblasts were cultured in Dulbecco's modified medium (DMEM)/10% newborn calf serum (NCS). F12, DMEM and serum were bought from Life Technologies. Primary bovine adrenal cortex capillary endothelial (BCE) cells were cultured on gelatin-coated dishes in DMEM/10% NCS and 2 ng/ml FGF-2 (Boehringer Mannheim). For chemotaxis assays, both PAE and NIH 3T3 cells were serum-starved over night in 0.1% BSA and BCE cells in 0.5% NCS. Human embryonic kidney (HEK) 293-EBNA cells were cultured in DMEM/10% FCS. Approximately every second month they were given 0.25 mg/ml G418 (Calbiochem) to ensure positive selection of the EBNA-1 expressing cells.
A migration assay was performed in a modified Boyden chamber as described earlier (Auerbach et al., 1991) using micropore polycarbonate filters (8 μm thick, 8 μm pore) coated with type-1 collagen solution at 100 μg/ml (Vitrogen 100, Collagen Corp). BCE, PAE/FGFR-1 or NIH 3T3 cells were preincubated or not with HRGP (100 ng/ml) for 30 min, trypsinised and resuspended at a concentration of 7.5×10^5 cells/ml in Dulbecco's modified essential medium (Invitrogen) containing 0.25% BSA and Trasylol at 1000 KIE. FGF-2 and VEGF-A was used at 5 ng/ml, HRGP and the protein C inhibitor (PCI) at 100 ng/ml and BSA at 0.25%. After 5 h at 37° C., migrated cells were stained with Giemsa and counted using an image analysis software (Easy Image Analysis) from Tekno Optik AB, Sweden. All samples were analysed in at least six parallel wells for each treatment.

[5] = test system: NIH 3T3 murine fibroblasts; test: chemotaxis assay in modified Boyden chamber, NIH 3T3 fibroblasts; format: cell-based; conditions: 100 ng/ml HRGP
Experimental: as §1
A migration assay was performed in a modified Boyden chamber as described earlier (Auerbach et al., 1991) using micropore polycarbonate filters (8 μm thick, 8 μm pore) coated with type-1 collagen solution at 100 μg/ml (Vitrogen 100, Collagen Corp). […] After 5 h at 37° C., migrated cells were stained with Giemsa and counted using an image analysis software (Easy Image Analysis) from Tekno Optik AB, Sweden. All samples were analysed in at least six parallel wells for each treatment.

| Molecule | FGF-2-induced chemotaxis of primary BCE cells, dose response (primary BCE cells [1]) | FGF-2-induced chemotaxis of primary BCE cells (primary BCE cells [2]) | tumour growth (tumour volume) (T241 fibrosarcoma cells) | growth factor-induced CAM angiogenesis (newly formed vessels) [3] | FCS-induced chemotaxis of BCE cells (primary BCE cells [4]; 100 ng/ml HRGP) | VEGF-A-induced chemotaxis of BCE cells (primary BCE cells [4]; 100 ng/ml HRGP, VEGF-A 5 ng/ml) | FGF-2-induced chemotaxis of BCE cells (primary BCE cells [4]; 100 ng/ml protein, FGF-2 5 ng/ml, 5 h) | FGF-2-induced chemotaxis of NIH 3T3 murine fibroblasts [5] |
| --- | --- | --- | --- | --- | --- | --- | --- | --- |
| Pep2: amino acid subfragment of 35 amino acids, amino acids 330-364 of mature human HRGP (DLHPHKHHSHEQHPHGHHPHAHHPHEHDTHRQHPH; listed as Homo sapiens) | dose-dependently inhibited | inhibited | inhibits tumor growth | – | – | – | – | – |
| B1 | – | – | – | The same result was obtained | not inhibited | attenuated | completely blocked | not affected |
